Paper PMC5264599

B1: wild type p16-GFP [not stated] / CDK4 (Cyclin-dependent protein kinase), endogenous in 293T cells [human (endogenous in 293T)] (parent)
chain 1: MEPAAGSSMEPSADWLATAAARGRVEEVRALLEAGALPNAPNSYGRRPIQVMMMGSARVAELLLLHGAEPNCADPATLTRPVHDAAREGFLDTLVVLHRAGARLDVRDAWGRLPVDLAEELGHRDVARYLRAAAGGTRGSNHARIDAAEGPSDIPD
chain 2: MATSRYEPVAEIGVGAYGTVYKARDPHSGHFVALKSVRVPNGGGGGGGLPISTVREVALLRRLEAFEHPNVVRLMDVCATSRTDREIKVTLVFEHVDQDLRTYLDKAPPPGLPAETIKDLMRQFLRGLDFLHANCIVHRDLKPENILVTSGGTVKLADFGLARIYSYQMALTPVVVTLWYRAPEVLLQSTYATPVDMWSVGCIFAEMFRRKPLFCGNSEADQLGKIFDLIGLPPEDDWPRDVSLPRGAFPPRGPRPVQSVVPEMEESGAQLLLEMLTFNPHKRISAFRALQHSYLHKDEGNPE

Variants of: B1
Experiment: co-immunoprecipitation (anti-GFP IP, anti-CDK4 immunoblot, photodensitometry)
Details: with CDK4 (Cyclin-dependent protein kinase), scale: relative intensity
[1] = 1 mM H2O2 for 24 h, read off a plot

| Variant | response [1] | response (no H2O2, read off a plot) |
| --- | --- | --- |
| chain 1 S152A | 1.7 | 1.1 |
| chain 1 S8A | 1.4 | 0.92 |
| chain 1 S140A | 0.92 | 0.85 |
